Results reported in US20050282239A1, “Cell-permeable enzyme activation reporter that can be loaded in a high throughput and gentle manner” (priority 2003, published 2005).
Ends that are not written are not given here.

Legend:
PKB [1] = biological target: T1, PKB (Homo sapiens, UniProt P31749); experiment: CACE: intracellular phosphorylation of PKB substrate in HT1080 cells; type: cell-based; conditions: cells with only two peaks
T1 construct: endogenous in cells; host or cells: HT1080 cells; HT1080/PTEN cells (engineered to over-express wild type PTEN, PKB itself not transfected)
Source text: Since the properties of F-PKB (SEQ ID NO:17) microinjected into HT1080 cells have been well characterized, experiments were undertaken to compare the fate of F-PKB-C loaded as F-PKB-C-SS-TAT (SEQ ID NO:16) into HT1080 cells to that of the microinjected F-PKB (SEQ ID NO:17). When microinjected, the percentage of phosphorylated F-PKB depended on the relative, steady-state levels of both the kinases and phosphatases. This observation is shown in electrophoretic traces from cells loaded with F-PKB-C-SS-TAT (1 μM) (FIG. 6). A single asterisk denotes the migration time of F-PKB, and a double asterisk denotes the migration time of phosphorylated F-PKB from cells on the day of the experiment.
CACE has been previously described (Sims, Meredith et al. 1998; Meredith, Sims et al. 2000; Li, Wu et al. 2001). Briefly, cells were placed on an inverted fluorescence microscope stage (Diaphot 300, Nikon, Japan) and maintained at 37° C. with an objective heater (Bioptechs; Butler, Pa.) prior to lysis unless stated otherwise. The cells were continually washed with ECB maintained at 37° C. (unless otherwise indicated) with a flow rate of 1 ml/min and a total chamber volume of 0.5 ml. The inlet of a capillary (30 μm I.D., 360 μm O.D., 75 cm long) was positioned 10 μm above the cell. The inverted microscope was coupled to a pulsed Nd:YAG laser and a CE system (Sims, 1998). The CACE-based assay was performed as previously described (U, 2001; Meredith, 2000). Cells were always maintained in ECB when analyzed by the CACE.
CE was performed as described (Sims, Meredith et al. 1998), with the following modifications. The inner walls of the capillaries (30 μm I.D., 360 μm O.D.) were coated with poly(acrylate) (Wang, Hu et al. 2003). The outlet of the capillary was held at a negative potential of 18-21 kV, and the inlet reservoir was held at ground potential. Under these conditions, the current through the capillary was typically ˜36 μA. Solutions of standards were loaded into the capillary by gravitational fluid flow. The loaded volume was calculated from Poiseulle's equation and from contributions by spontaneous fluid displacement and diffusion (Weinberger, 2000; Fishman, 1994; Crank, 1989). To estimate the number of moles of peptide in an unknown solution or within a cell, the peak area from the electrophoretic trace of the solution or the cell was compared to that of a standard of known concentration separated by electrophoresis on the same day. A 1 pL cell volume and 100% peptide recovery was assumed in calculating intracellular peptide concentration (Meredith, Sims et al. 2000; Sims, Meredith et al. 1998). Analytes were detected by laser-induced fluorescence (Sims, Meredith et al. 1998).
Cells were incubated at room temperature for 5 minutes in 1% bovine serum albumin (BSA) in ECB, washed in ECB, and then incubated for 5 minutes at room temperature with a substrate conjugated to TAT(49-57). The cells were then washed with 1% BSA in ECB. Cells loaded with the disulfide conjugate were placed in supplement DMEM (10% FCS, 4 mM L-glutamine, 100 U/mL penicillin and 100 μg/mL streptomycin) and incubated at 37° C. in 5% CO2 for 20 minutes. Cells loaded with the photolabile conjugate were placed in supplemented DMEM and incubated at 37° C. in 5% CO2 for 10 minutes (unless stated otherwise) and were then illuminated with a UV light source for 10 seconds (a radiant energy/unit area of 2 kJ/m^2). The supplemented DMEM was exchanged and the cells were incubated another 10 minutes at 37° C. in 5% CO2. Just prior to analysis the cells were washed into ECB.

PKB [2] = biological target: T1, PKB; experiment: CACE: intracellular phosphorylation of PKB substrate in HT1080/PTEN cells; type: cell-based; conditions: 1 μM extracellular
Protocol: Previous investigators developed cleavable PTD-cargo conjugates by engineering a disulfide linkage between the two domains (Stein, Weiss et al. 1999; Hallbrink, Floren et al. 2001). […] TAT(49-57)(SEQ ID NO:2) was conjugated via a disulfide bond to cysteines added to substrate peptides for CamKII (F-CamKII-C; SEQ ID NO:13) or PKB (F-PKB-C; SEQ ID NO:14), denoted F-CamKII-C-SS-TAT (SEQ ID NO:15) and F-PKB-C-SS-TAT (SEQ ID NO:16), respectively. The TAT(49-57)-Conjugated substrates were incubated with cells (HT1080 or HT1080/PTEN cells) and the contents of the cells were analyzed by the CACE. […]
(§1) CACE has been previously described (Sims, Meredith et al. 1998; Meredith, Sims et al. 2000; Li, Wu et al. 2001). Briefly, cells were placed on an inverted fluorescence microscope stage (Diaphot 300, Nikon, Japan) and maintained at 37° C. with an objective heater (Bioptechs; Butler, Pa.) prior to lysis unless stated otherwise. […] Cells were always maintained in ECB when analyzed by the CACE.
(§2) CE was performed as described (Sims, Meredith et al. 1998), with the following modifications. […] The loaded volume was calculated from Poiseulle's equation and from contributions by spontaneous fluid displacement and diffusion (Weinberger, 2000; Fishman, 1994; Crank, 1989). […] Analytes were detected by laser-induced fluorescence (Sims, Meredith et al. 1998). […]

HT1080 cells = experiment: CACE single-cell analysis: loading and release of cargo; type: cell-based, human
PKB [3] = biological target: T2, PKB (Rattus norvegicus, UniProt P47196); experiment: CACE: intracellular phosphorylation of PKB substrate in RBL cells; type: cell-based; conditions: 750 nM extracellular
T2 construct: endogenous in cells; host or cells: RBL-2H3 rat basophilic leukemia cells, with or without PIP3-histone
Protocol: To determine whether the F-PKB-C delivered to cells by addition of F-PKB-C-SS-TAT (SEQ ID NO:16) at a 750 nM extracellular concentration could also be phosphorylated after pharmacologic activation of PKB (rather than constitutively active PKB), PIP3-histone was added to RBL cells. […] The CACE was used to analyze the amount of phosphorylated F-PKB-C in the presence (15 μM) and absence of PIP3-histone added for 10 min to RBL cells loaded with F-PKB-C-SS-TAT (FIG. 6C,D).
as §1, with “otherwise. The cells were continually washed with ECB maintained at 37° C. (unless otherwise indicated) with a flow rate of 1 ml/min and a total chamber volume of 0.5 ml.” for “otherwise.”
as §2

RBL cells = experiment: CACE single-cell analysis: loading and release of cargo; type: cell-based, rat; conditions: 750 nM extracellular
recombinant CamKII = biological target: T3, recombinant CamKII (Rattus norvegicus, UniProt P11275); experiment: In vitro kinase assay, 32P phosphate incorporation; type: biochemical; conditions: peptides 5-60 μM, 30° C., 30 minutes
T3 construct: purchased Calbiochem (San Diego, Calif.) / EMD Biosciences (San Diego, Calif.)
Protocol: In addition to assessing the electrophoretic behavior of F-CamKII-TAT, the ability of this conjugated sequence to act as an efficient substrate for the CamKII enzyme was characterized. The amount of phosphate incorporated into the substrate peptide alone and into F-CamKII-TAT by CamKII was measured in vitro. In the range of measured peptide concentrations, 90% less phosphate was incorporated by the CamKII enzyme into F-CamKII-TAT compared to the peptide lacking the TAT(49-57) sequence. The kinetic properties of CamKII enzyme for the CamKII peptide substrate were degraded when the peptide was conjugated to TAT(49-57).
Peptides (5-60 μM) were phosphorylated in vitro by 100 units of recombinant CamKII (EMD Biosciences; San Diego, Calif.) in 20 mM Tris-HCl, 10 mM MgCl2, 0.5 mM dithiothreitol (DTT), and 0.1 mM Ethylenediaminetetraacetic acid-(EDTA, pH 7.5) with […], 2 mM CaCl2 and […] [[…]-^32P]-ATP. The final specific activity of the [[…]-^32P]-ATP was 100 cpm/pmole; the total reaction volume was 25 μL. The mixture was incubated at 30° C. for 30 minutes. The reaction was stopped by adding 45 μL ice-cold 10% (v/v) trichloroacetic acid, mixed with a vortex, centrifuged, and blotted onto P81 phosphocellulose paper. Phosphate incorporation was quantified with a liquid scintillation counter (LS 3801; Beckman Instruments; Irvine, Calif.)

cells = experiment: Confocal microscopy of conjugate uptake; type: cell-based; conditions: same concentration for all conjugates
Source text: The ability of the D- and L-arginine polymers to enhance trans-membrane transport was confirmed by confocal microscopy (see FIGS. 6A-F and Example 4).

Jurkat cells = experiment: Michaelis-Menten kinetics of cellular uptake; type: cell-based, human; conditions: 4° C. (on ice), Lineweaver-Burk plots, incubation 30-240 seconds
Protocol: When cellular uptake of polymers of D- and L-arginine were analyzed by Michaelis-Menten kinetics (see Example 6), the rate of uptake by Jurkat cells was so efficient that precise Km values could only be obtained when the assays were carried out at 4° C. (on ice). Both the maximal rate of transport (Vmax) and the apparent affinity of the peptides for the putative receptor of the Michaelis constant (Km) were derived from Lineweaver-Burk plots of the observed fluorescence of Jurkat cells after incubation with varying concentrations of nonamers of D- and L-arginine for 30, 60, 120, and 240 seconds.

[4] = system: F-CamKII-TAT (fluorescein-labeled CamKII substrate peptide conjugated to TAT(49-57) through a peptide bond)

T1 sequence (P31749 whole entry): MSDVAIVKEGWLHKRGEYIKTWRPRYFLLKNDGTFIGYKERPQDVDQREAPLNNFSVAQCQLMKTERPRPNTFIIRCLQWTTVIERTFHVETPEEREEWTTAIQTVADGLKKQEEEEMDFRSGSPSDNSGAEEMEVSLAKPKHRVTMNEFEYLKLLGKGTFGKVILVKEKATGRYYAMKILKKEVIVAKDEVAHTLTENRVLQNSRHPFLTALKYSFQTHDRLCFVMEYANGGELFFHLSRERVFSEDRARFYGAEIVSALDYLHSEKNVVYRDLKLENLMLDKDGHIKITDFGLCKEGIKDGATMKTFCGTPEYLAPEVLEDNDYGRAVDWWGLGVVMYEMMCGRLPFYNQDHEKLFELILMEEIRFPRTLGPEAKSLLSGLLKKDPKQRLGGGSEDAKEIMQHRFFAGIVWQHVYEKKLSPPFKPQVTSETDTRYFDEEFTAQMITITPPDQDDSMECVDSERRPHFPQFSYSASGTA
T2 sequence (P47196 whole entry): as the sequence (P31749 whole entry) above, with S2N, D46E, A50S, K112R, E117T, S137A, K389T, G410N, H415D counted along it

Substance: Gly Arg Pro Arg Ala Ala Thr Phe Ala Glu Gly Cys Arg Lys Lys Arg Arg Gln Arg Arg Arg (Fluorescein-GRPRAATFAEGCRKKRRQRRR-NH2; not fully specified; printed as Gly Arg Pro Arg Ala Ala Thr Phe Ala Glu Gly Cys Arg Lys Lys Arg Arg Gln Arg Arg Arg; also: disulfide linkage between the PKB-Cys part and the TAT part (partner not shown)) [F-PKB-C-SS-TAT, F-PKB-C conjugated to TAT(49-57) via a disulfide bond]
- peptide present as phosphorylated F-PKB-C (PKB [1]): 75±8%
- peak of phosphorylated F-PKB-C (PKB [2]): no peak was present
- average amount of detected F-PKB-C (HT1080 cells; 215 nM extracellular): 2.5e-19 ± 3e-20 mol
- cytosolic concentration of free F-PKB-C (HT1080 cells; 215 nM extracellular): ~250 nM
- detectable F-PKB-C per cell (HT1080 cells; 1 μM extracellular): 7e-19 ± 3e-20 mol
- cytosolic concentration of free F-PKB-C (HT1080 cells; 1 μM extracellular, 1 pL cell volume assumed): ~700 nM
- F-PKB-C phosphorylated (PKB [3]; PIP3-histone 15 μM 10 min, n=4): 39%±14%
- F-PKB-C phosphorylation (PKB [3]; cells not exposed to PIP3-histone): no phosphorylation
- detectable F-PKB-C per cell (RBL cells): 1.4e-20 ± 1e-21 mol
- intracellular concentration (RBL cells): ~14 nM

Substance: Lys Lys Ala Leu His Arg Gln Glu Thr Val Asp Ala Leu Arg Lys Lys Arg Arg Gln Arg Arg Arg (KKALHRQETVDALRKKRRQRRR-NH2; not fully specified (N-terminus); printed as Lys Lys Ala Leu His Arg Gln Glu Thr Val Asp Ala Leu Arg Lys Lys Arg Arg Gln Arg Arg Arg; also: fluorescein label, position not given here) [F-CamKII-TAT, F-CamKII conjugated to TAT(49-57) through a peptide bond]
- less phosphate incorporated by CamKII compared to the peptide lacking the TAT(49-57) sequence (recombinant CamKII): 90%

Substance: RKKRRQRRR [TAT(49-57), basic region of HIV TAT protein, residues 49-57]
- fluorescence of cytosol by confocal microscopy (cells): only weak staining
- Km (Jurkat cells): 722 µM
- Vmax (Jurkat cells): 0.38 µM/s

Substance: Recombinant calcium-calmodulin activated kinase II (CamKII)
- phosphate incorporated into the peptide by CamKII in vitro (32P-ATP kinase assay), compared to the substrate peptide lacking TAT(49-57) [4]: 90% less phosphate was incorporated by the CamKII enzyme into F-CamKII-TAT compared to the peptide lacking the TAT(49-57) sequence
